Assay results from patent publication US20200199204A1.

Columns and labels:
Assay in all cases: cell-based or functional assay
[1] = molecular target: HIV-1 Env of 0260.v5.c36 (HIV-1)
[2] = molecular target: HIV-1 Env of ZM53.12 (HIV-1)
[3] = molecular target: HIV-1 Env of Q769.d22 (HIV-1)
[4] = molecular target: HIV-1 Env of CAP256.PI (HIV-1)
[5] = molecular target: HIV-1 Env of AC10.29 (HIV-1)
[6] = molecular target: HIV-1 Env of MB201 (HIV-1)
[7] = molecular target: HIV-1 Env of DU172.17 (HIV-1)
[8] = molecular target: HIV-1 Env of CNE3 (HIV-1)
[9] = molecular target: HIV-1 Env of PVO.04 (HIV-1)
[10] = molecular target: HIV-1 Env of ZM197.7 (HIV-1)
[11] = molecular target: HIV-1 Env of 191821.E6.1 (HIV-1)
[12] = molecular target: HIV-1 Env of Q842.d12 (HIV-1)
[13] = molecular target: HIV-1 Env of RHPA.7 (HIV-1)
[14] = molecular target: HIV-1 Env of 6405.v4.c34 (HIV-1)
[15] = molecular target: HIV-1 Env of UG037.8 (HIV-1)
[16] = molecular target: HIV-1 Env of Q259.d2.17 (HIV-1)
[17] = molecular target: HIV-1 Env of CAAN.A2 (HIV-1)
[18] = molecular target: HIV-1 Env of SC422.8 (HIV-1)
[19] = molecular target: HIV-1 Env of CAP244.D3 (HIV-1)
[20] = molecular target: HIV-1 Env of CM244.ec1 (HIV-1)
[21] = molecular target: HIV-1 Env of 96ZM651.02 (HIV-1)
[22] = molecular target: HIV-1 Env of THRO.18 (HIV-1)
[23] = molecular target: HIV-1 Env of MB539.2B7 (HIV-1)
[24] = molecular target: HIV-1 Env of ZM109.4 (HIV-1)
[25] = molecular target: HIV-1 Env of ZM233.6 (HIV-1)
[26] = molecular target: HIV-1 Env of TH976.17 (HIV-1)
[27] = molecular target: HIV-1 Env of DU422.01 (HIV-1)
[28] = molecular target: HIV-1 Env of BG505.w6m (HIV-1)
[29] = molecular target: HIV-1 Env of Q461.e2 (HIV-1)
[30] = molecular target: HIV-1 Env of CAP256.SU (HIV-1)
[31] = molecular target: HIV-1 Env of TRO.11 (HIV-1)
[32] = molecular target: HIV-1 Env of C1080.c3 (HIV-1)
[33] = molecular target: HIV-1 Env of TRJO.58 (HIV-1)
[34] = molecular target: HIV-1 Env of CAP45.G3 (HIV-1)
[35] = molecular target: HIV-1 Env of Q168.a2 (HIV-1)
[36] = molecular target: HIV-1 Env of KER2008.12 (HIV-1)
[37] = molecular target: HIV-1 Env of RW020.2 (HIV-1)
[38] = molecular target: HIV-1 Env of CAP210.E8 (HIV-1)
[39] = molecular target: HIV-1 Env of WITO.33 (HIV-1)
[40] = molecular target: HIV-1 Env of 6535.3 (HIV-1)
[41] = molecular target: HIV-1 Env of REJO.67 (HIV-1)
[42] = molecular target: HIV-1 Env of 3016.V5.c36 (HIV-1)
[43] = molecular target: HIV-1 Env of ZM214.15 (HIV-1)
[44] = molecular target: HIV-1 Env of QH0692.42 (HIV-1)
[45] = molecular target: HIV-1 Env of ZM249.1 (HIV-1)
[46] = molecular target: HIV-1 Env of Q23.17 (HIV-1)
[47] = molecular target: HIV-1 Env of KER2018.11 (HIV-1)
[48] = molecular target: HIV-1 Env of DU156.12 (HIV-1)
[49] = molecular target: HIV-1 Env of ZM135.10a (HIV-1)

## CAP256-VRC26.16 (antibody)
[1]
  IC50: > 50 µg/mL
[2]
  IC50: 0.006 µg/mL
[3]
  IC50: > 50 µg/mL
[4]
  IC50: > 50 µg/mL
[5]
  IC50: > 50 µg/mL
[6]
  IC50: > 50 µg/mL
[7]
  IC50: > 50 µg/mL
[8]
  IC50: > 50 µg/mL
[9]
  IC50: > 50 µg/mL
[10]
  IC50: 2.21 µg/mL
[11]
  IC50: 0.82 µg/mL
[12]
  IC50: > 50 µg/mL
[13]
  IC50: > 50 µg/mL
[14]
  IC50: > 50 µg/mL
[15]
  IC50: > 50 µg/mL
[16]
  IC50: 5.78 µg/mL
[17]
  IC50: > 50 µg/mL
[18]
  IC50: > 50 µg/mL
[19]
  IC50: > 50 µg/mL
[20]
  IC50: 0.67 µg/mL
[21]
  IC50: > 50 µg/mL
[22]
  IC50: > 50 µg/mL
[23]
  IC50: > 50 µg/mL
[24]
  IC50: > 50 µg/mL
[25]
  IC50: 0.031 µg/mL
[26]
  IC50: > 50 µg/mL
[27]
  IC50: 3.9 µg/mL
[28]
  IC50: 0.36 µg/mL
[29]
  IC50: > 50 µg/mL
[30]
  IC50: 0.004 µg/mL
[31]
  IC50: > 50 µg/mL
[32]
  IC50: 5.9 µg/mL
[33]
  IC50: > 50 µg/mL
[34]
  IC50: > 50 µg/mL
[35]
  IC50: > 50 µg/mL
[36]
  IC50: > 50 µg/mL
[37]
  IC50: > 50 µg/mL
[38]
  IC50: 0.009 µg/mL
[39]
  IC50: > 50 µg/mL
[40]
  IC50: > 50 µg/mL
[41]
  IC50: > 50 µg/mL
[42]
  IC50: 0.012 µg/mL
[43]
  IC50: > 50 µg/mL
[44]
  IC50: > 50 µg/mL
[45]
  IC50: 45 µg/mL
[46]
  IC50: > 50 µg/mL
[47]
  IC50: 0.062 µg/mL
[48]
  IC50: 48.7 µg/mL
[49]
  IC50: > 50 µg/mL

## CAP256-VRC26.17 (antibody)
[1]
  IC50: > 50 µg/mL
[2]
  IC50: 0.005 µg/mL
[3]
  IC50: > 50 µg/mL
[4]
  IC50: > 50 µg/mL
[5]
  IC50: > 50 µg/mL
[6]
  IC50: > 50 µg/mL
[7]
  IC50: > 50 µg/mL
[8]
  IC50: > 50 µg/mL
[9]
  IC50: > 50 µg/mL
[10]
  IC50: 2.2 µg/mL
[11]
  IC50: 35.4 µg/mL
[12]
  IC50: > 50 µg/mL
[13]
  IC50: > 50 µg/mL
[14]
  IC50: > 50 µg/mL
[15]
  IC50: > 50 µg/mL
[16]
  IC50: 0.076 µg/mL
[17]
  IC50: > 50 µg/mL
[18]
  IC50: > 50 µg/mL
[19]
  IC50: > 50 µg/mL
[20]
  IC50: 0.14 µg/mL
[21]
  IC50: > 50 µg/mL
[22]
  IC50: > 50 µg/mL
[23]
  IC50: > 50 µg/mL
[24]
  IC50: > 50 µg/mL
[25]
  IC50: 0.006 µg/mL
[26]
  IC50: > 50 µg/mL
[27]
  IC50: 0.51 µg/mL
[28]
  IC50: 0.4 µg/mL
[29]
  IC50: > 50 µg/mL
[30]
  IC50: 0.003 µg/mL
[31]
  IC50: > 50 µg/mL
[32]
  IC50: > 50 µg/mL
[33]
  IC50: > 50 µg/mL
[34]
  IC50: > 50 µg/mL
[35]
  IC50: > 50 µg/mL
[36]
  IC50: > 50 µg/mL
[37]
  IC50: > 50 µg/mL
[38]
  IC50: 0.006 µg/mL
[39]
  IC50: > 50 µg/mL
[40]
  IC50: > 50 µg/mL
[41]
  IC50: > 50 µg/mL
[42]
  IC50: 0.011 µg/mL
[43]
  IC50: > 50 µg/mL
[44]
  IC50: > 50 µg/mL
[45]
  IC50: 1.23 µg/mL
[46]
  IC50: 6.42 µg/mL
[47]
  IC50: 0.064 µg/mL
[48]
  IC50: 18.7 µg/mL
[49]
  IC50: > 50 µg/mL

## CAP256-VRC26.18 (antibody)
[1]
  IC50: > 50 µg/mL
[2]
  IC50: 0.01 µg/mL
[3]
  IC50: > 50 µg/mL
[4]
  IC50: > 50 µg/mL
[5]
  IC50: > 50 µg/mL
[6]
  IC50: > 50 µg/mL
[7]
  IC50: > 50 µg/mL
[8]
  IC50: > 50 µg/mL
[9]
  IC50: > 50 µg/mL
[10]
  IC50: 1.89 µg/mL
[11]
  IC50: 10.4 µg/mL
[12]
  IC50: > 50 µg/mL
[13]
  IC50: > 50 µg/mL
[14]
  IC50: > 50 µg/mL
[15]
  IC50: > 50 µg/mL
[16]
  IC50: 5.31 µg/mL
[17]
  IC50: > 50 µg/mL
[18]
  IC50: > 50 µg/mL
[19]
  IC50: > 50 µg/mL
[20]
  IC50: 1.42 µg/mL
[21]
  IC50: > 50 µg/mL
[22]
  IC50: > 50 µg/mL
[23]
  IC50: > 50 µg/mL
[24]
  IC50: > 50 µg/mL
[25]
  IC50: 0.037 µg/mL
[26]
  IC50: > 50 µg/mL
[27]
  IC50: 5.4 µg/mL
[28]
  IC50: 1.9 µg/mL
[29]
  IC50: > 50 µg/mL
[30]
  IC50: 0.008 µg/mL
[31]
  IC50: > 50 µg/mL
[32]
  IC50: 2.15 µg/mL
[33]
  IC50: > 50 µg/mL
[34]
  IC50: > 50 µg/mL
[35]
  IC50: > 50 µg/mL
[36]
  IC50: > 50 µg/mL
[37]
  IC50: > 50 µg/mL
[38]
  IC50: 0.019 µg/mL
[39]
  IC50: > 50 µg/mL
[40]
  IC50: > 50 µg/mL
[41]
  IC50: > 50 µg/mL
[42]
  IC50: 0.028 µg/mL
[43]
  IC50: > 50 µg/mL
[44]
  IC50: > 50 µg/mL
[45]
  IC50: > 50 µg/mL
[46]
  IC50: 35 µg/mL
[47]
  IC50: 0.03 µg/mL
[48]
  IC50: > 50 µg/mL
[49]
  IC50: > 50 µg/mL
